Consider 2 molecules from patent US20200231671A1 (E R SQUIBB AND SONS L L C, published 2020).

Where no end group is shown, it is not given here.

Assay in all cases: peptide scan ELISA
For orientation: In an ELISA, binding on a coated surface is turned into a signal by an enzyme label.

Assay [1] deals with T1, LAG-3 extra loop scan peptide PGHPLAPGPHPA (human, also: conjugated to biotin).
T1 construct: 12-mer overlapping scan peptide of the extra loop
T1 peptide: PGHPLAPGPHPA
The procedure:
(§1) In the LAG-3 protein, the immunoglobulin-like first domain of the extracellular region contains an exposed “extra loop” having the amino acid sequence: […] (SEQ ID NO: 79). To examine the binding of 25E3, 25F7, 8B7 and 26H10 to this region of LAG-3, and map the epitope bound by each antibody, a peptide scan experiment was performed across this region. A series of 10 overlapping peptides that scanned across the full length of the extra loop sequence were prepared and conjugated to biotin. For ELISA analysis, microtiter plates pre-coated with streptavidin (Sigma-Aldrich, Cat # M5432) were used to capture the biotinylated loop peptide-conjugates applied in a 100 μl volume at a concentration of 2 μg/mL and incubated 18 hours at 4° C., after which the plates were washed 3 times and blocked at room temperature for 1 hour with blocking buffer (1×PBS+10% FBS). Next, human anti-LAG-3 antibodies serially diluted 3-fold in blocking buffer from 10 μg/mL were applied and the plates were incubated at room temperature for 2 hours and then washed three times. To detect bound human antibody a HRP-conjugated goat anti-human kappa light chain antibody (Bethyl Laboratories, Cat # A80-115P) was diluted to 1 μg/mL in blocking buffer and applied to assay wells for 1 hour followed by three washes and application of TMB substrate (eBioscience, Cat #00-4201-56). Optical density readings at 650 nm wavelength were made on a Spectramax 340PC spectrophotometer ([…].).

Assay [2] addresses T2, LAG-3 extra loop scan peptide HPLAPGPHPAAP (human, also: conjugated to biotin, site not given here).
T2 construct: 12-mer overlapping scan peptide of the extra loop
T2 peptide: HPLAPGPHPAAP
The procedure:
as §1

Assay [3] has as its target T3, LAG-3 extra loop scan peptide APSSWGPRPRRY (human, also: conjugated to biotin, site not given here).
T3 construct: 12-mer overlapping scan peptide of the extra loop
T3 peptide: APSSWGPRPRRY
The protocol:
as §1

For assay [4], the target named is T4, LAG-3 extra loop scan peptide GPPAAAPGHPLA (human, also: conjugated to biotin, site not given here).
T4 construct: 12-mer overlapping scan peptide of the extra loop
T4 peptide: GPPAAAPGHPLA
The protocol:
as §1

Assay [5] deals with T5, LAG-3 extra loop scan peptide PAAAPGHPLAPG (human, also: conjugated to biotin, site not given here).
T5 construct: 12-mer overlapping scan peptide of the extra loop
T5 peptide: PAAAPGHPLAPG
The procedure:
as §1

Assay [6] concerns the target T6, LAG-3 extra loop scan peptide LAPGPHPAAPSS (human, also: conjugated to biotin, site not given here).
T6 construct: 12-mer overlapping scan peptide of the extra loop
T6 peptide: LAPGPHPAAPSS
The protocol: as §1

Assay [7] addresses T7, LAG-3 extra loop scan peptide AAPGHPLAPGPH (human, also: conjugated to biotin, site not given here).
T7 construct: 12-mer overlapping scan peptide of the extra loop
T7 peptide: AAPGHPLAPGPH
The procedure:
as §1

B1: 26H10 human monoclonal antibody (antibody, IgG1, V domains shown)
VH: QVQLVESGGGVVQPGRSLRLSCAASGFTFSSYGMHWVRQAPGKGLEWVAVIWYDGSNKYYADSVKGRFTISRDNSKNTLYLQMNSLRAEDTAVYYCAREWAVASWDYGMDVWGQGTTVTVSS
VL: not shown
notes: also called 26H10-FITC
Turning to B1, the binding result in assay [1], in assay [2], in assay [3], in assay [4], in assay [5] and in assay [6] was “no binding (tested: 10 µg/mL)” in each case. Besides, the binding result in assay [7] is “no binding (tested: 10 µg/mL)”.

B2: 25E3 human monoclonal antibody (antibody, IgG1, V domains shown)
VH: EVQLVESGGGVVRPGGSLRLSCAASGFTFDDYGMSWVRQAPGKGLEWVSGINWNGGSTYYADSVKGRFTISGDNAKNSLYLQMNSLRAEDTALYYCTTGGYWGQGTLVTVSS
VL: AIQLTQSPSSLSASVGDRVTITCRASQGIRSALAWYQQKPGKAPKLLIYDASSLESGVPSRFSGSGSGTDFTLTISSLQPEDFATYYCQQFNSYPYTFGQGTKLEIK
For B2, the binding result in assay [1], in assay [5] and in assay [7] was “binds” in each case.
